How the values were obtained:
Myc-tagged ATAD3A = test: co-immunoprecipitation (IP anti-Flag, WB anti-Myc), densitometry; details: HEK293 cells transfected for 48 h; five independent experiments; parent: est. 1.0; read off a plot
[1] = biological target: ATAD3A K135E (Flag-tagged); test: non-reducing western blot of ATAD3A dimer (with or without β-ME), densitometry; details: HEK293 cells transfected for 48 h; at least 6 independent experiments; parent: est. 1.0; read off a plot
[2] = biological target: ATAD3A K135Q (Flag-tagged); test: as above; details: HEK293 cells transfected for 48 h; at least 6 independent experiments; parent: est. 1.0; read off a plot

Row | ratio to parent (Myc-tagged ATAD3A) | ratio to parent [1] | ratio to parent [2] | Substance
1 | 1.6 | 2.3 | – | ATAD3A-Flag wildtype (in HEK293 cells) K135E
2 | 0.58 | – | 0.8 | ATAD3A-Flag wildtype (in HEK293 cells) K135Q

— paper PMC6435701
